The nanobody polyreactivity screen of Harvey et al. (2022)

Test: yeast display, Sf9 membrane polyspecificity reagent, FACS + sequencing; frameworks hold sequencing errors
How it was run: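 Sorting gates, low and high (top ~1%), were placed on anti-HA fluorescence to track expression and on streptavidin fluorescence to track reagent binding. A clone's polyreactivity label is taken from the gate it came out of. The reagent was 10% biotinylated, detergent-solubilized Sf9 membrane, applied for 1 hour at 4 °C to galactose-induced yeast display cells.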

Sequence | polyreactivity (PSR sort gate)
QVQLVESGGGLVQAGGSLRLTCAASGFIFQYYAMGWYRQAPGKEREFVAAISSSGTSTYYADSVKGRFTISRDNAKNTVYLQMNSLKPEDTAVYYCAAREAGLYWLYYPGLRYYYWGQGTQVTVSS | high polyreactivity
QVQLVESGGGLVQAGGSLRLTCAASGFIFRSYAMGWYRQAPGKERELVAAINSRAGNTYYADSVKGRFTISRDNAKNTVYLQMNSLKPEDTAVYYCAVRSYSPRSRGMGYWGQGTQVTVSS | high polyreactivity
QVQLVESGGGLVQAGGSLRLTCAASGFTFGVYAMGWYRQAPGKERELVAAIDDGTNTYYADSVKGRFTISRDNAKNTVYLQMNSLKPEDTAVYYCNADDPYYIAEQSWSESDYWGQGTQVTVSS | low polyreactivity
QVQLVESGGGLVQAGGSLRLTCAASGFTFSGYAMGWYRQAPGKERELVAAISSSGASTYYADSVKGRFRISRDNAKYTVYLQMNSLNPEDTAVYYCNTLYYFPYLWPYDYWGQGTQVTVSS | high polyreactivity
QVQLVESGGGLVQAGGSLRLTCAASGFTLDVNAMGWYRQAPGKERELVATISWGGASTYYADSVKGRFTISRDNAKNTVYLQMNSLKPEDTAVYYCAAQYYYPDDKGGYDYWGQGTQVTVSS | low polyreactivity
QVQLVESGGGLVQAGGSLRLTCAASGGTFVYNAMGWYRKAPGKERELVAAISRGGTRTYYADSVKGRFTISRDNAKNTVYLQMNSLKPEDTAVYYCNAEVNTNYRIADYDYWGQGTQVTVSS | high polyreactivity
QVQLVESGGGLVQAGGSLRLTCAASGGTLRYYGMGWYRQAPGKEWEFVAAISWSGDSTYYADSVKGRFTISRDNAKTTVYLQMNSLKPEDTAVYFCAATYYLTYYYGQANHGYDYWGQGTQVTVSS | low polyreactivity
QVQLVESGGGLVQAGGSLRLTCAASGINCVWYAMGWYRQAPGKERELVAAIRSGGITNYADSVKGRFTISRDNAQNTVYLQMNSLKPEDTAVYYCAAPYRTDTGDDYWGQGTQVTLSS | low polyreactivity
QVQLVESGGGLVQAGGSLRLTCAASGITFRAYVMGWYRQEPGKERELVAAINRRGGSTYYADSVKGRFTISRDNAKNTVYLQMNSLKPEDTAVYYCAAGLYSTGYTYDYWGQGTQVTVSS | high polyreactivity
QVQLVESGGGLVQAGGSLRLTCAASGLIFYRYAMGWYRQAPGKERELVATMSRSGGTYADSVKGRFTISRDNAKNTVYLQMNSLKPEDTAVYYCNARTLYAYITRDYWGQGTQVTVSS | high polyreactivity
QVQLVESGGGLVQAGGSLRLTCAASGLTFDSNVMGWYRQAPGKERELVAAITASGGRTYYADSVKGRFTISRDNAKNTVYLQMNSLKPEDTAVYYCAADSRSAYDYWGQGSQVTVSS | high polyreactivity
QVQLVESGGGLVQAGGSLRLTCAASGLTFGLYAMGWYRQAPGKERELVAAITRGDSTNYADSVKGRFTISRDNAKNTVYLQMNSLKPEDTAVYYFNAVRTYWWGYNQQYNYWGQGTQVTVSS | high polyreactivity
QVQLVESGGGLVQAGGSLRLTCAASGLTFYFYTMGWYRQAPGKERELVAAIRSAGRTNYADSVKGRFTISRDNAKNTVYLQMNSLKPEDTAVYYCAAISPGYYRIVWYDYWGQGTQVTVSS | high polyreactivity
QVQLVESGGGLVQAGGSLRLTCAASGNTFTTNVMGWYRQAPGKERELVARISWSGTSTSYADSVKGRFTISRDNAKNTVYLQMNSLKPEDTAVYYCAVGGIVHIRSRAQQEYYYWGHGTQVTVSS | high polyreactivity
QVQLVESGGGLVQAGGSLRLTCAASGRIFPVYAMGWYRQAPGKERELVAAISGSGGSTYYADSVKGRFTISRDNAKKSVYLQMNSLKPEDTAVYYCAAVTTPRFSIGYEYWGQGTQVTVSS | low polyreactivity
QVQLVESGGGLVQAGGSLRLTCAASGRIFRVNTMGWYRQAPGKERELVATINGRGGSTYYADSVKGRFTISRDNAKNTVYLQMNSLKPVDTSVYYCAARARTTRSATYDYWGQGTQGTVSS | high polyreactivity
QVQLVESGGGLVQAGGSLRLTCAASGRIFRYYAMGWYRQAPGKERELVATISRGGSTTYADSVKGRFTISRDNAKNTVYLQMNSLKPEDTAVYYCDARFGSTYDYWGQGTQVTVSS | low polyreactivity
QVQLVESGGGLVQAGGSLRLTCAASGRIFSYYAMGWYRPAPGKERELVAAISSSGGSTYYADSVKGRFTISRDNAKNTVYLQMNSLKPEDTAVYDCRVYTRGEYYSWGQGTQVTVSS | high polyreactivity
QVQLVESGGGLVQAGGSLRLTCAASGRIFTTNAMGWYRQAPGKERELVAAITSGASTYADSVKGRVTISRDNAKNTGYLQMNSLKPEDTAVYAESTYNWYYYYWGQGTQVTVSS | low polyreactivity
QVQLVESGGGLVQAGGSLRLTCAASGRIFVPYVMGWFRQAPGKERELVAAISSSGGSTYYADSVKGRFTISRDNAKNTVYLQMNSLKPEDTAVYYCAKPYYFHEEDHWGQGTQVTVSS | low polyreactivity
QVQLVESGGGLVQAGGSLRLTCAASGRILGRNAMGWYRQAPGKEREFVAGISYSGTSTYYADSVKGRFTISRDNAKNTVYLQMNSLKPEDTAVYYCNVKNQVYRRYYYWGQGTQVTVSS | high polyreactivity
QVQLVESGGGLVQAGGSLRLTCAASGRTFGVYAMGWYRQAPGKERELVADITSGGGTYYADSVKGRFTILRDNAKNTVYLQMNSLKPEDTAVYYCAARKWYYAYEYWGQGTQVTVSS | high polyreactivity
QVQLVESGGGLVQAGGSLRLTCAASGRTFRLYVMGWYRQAPGKERELVASISYGGGRTYYADSVKGRFTISRDNAKNTVYLQMNSLKPEDTAVYYCAARYYTYRLDMDYWGQGTQVTVSS | high polyreactivity
QVQLVESGGGLVQAGGSLRLTCAASGRTFRTYAMGWYRQAPGKERELVAAITSGGNTYYADSVKGRFTISRDNAKNTVYLQMNSLKPEDTAVYYCAAVQYFKVSYWGQGTQVTVSS | high polyreactivity
QVQLVESGGGLVQAGGSLRLTCAASGRTFYVNAMGWYRQAHGKERELVATISRGGSTHYADSVKGRFTISRDNAKYTVYLQLNSLKPEDTAVYYCAAPGRTSVYRYYYWGQGTQVTVSS | high polyreactivity
QVQLVESGGGLVQAGGSLRLTCAASGRTFYYYAMGWYRQAPGKERELVAAISRSGGSTYYADSVKGRFTISRDNSKNTVYLQMNSLKPEDTAVYYCAKVAITSSGYWRYDYWGQGTQVTVSS | high polyreactivity
QVQLVESGGGLVQAGGSLRLTCAASGRTLAKNAMGWYRQAPGKERELVAAISRRGGSTYYADSVKGRFTISRDNAKNTVYLQMNSLKPEDTAVYYCARASRQGYYQLSYDEFDYWGQGTQVTVSS | high polyreactivity
QVQLVESGGGLVQAGGSLRLTCAASGSIFFYYTMGWYRQAPGKERELVAAISVGGSTYYADSVKGRFTISRDNAKNTVYLQMNSLKPEDTAVYYCNAVPAKGYVTVVRYYYWGQGTQVTVSS | low polyreactivity
QVQLVESGGGLVQAGGSLRLTCAASGSIFPRYAMGWYREAPGKERELVAAISFRGASTYYADSVKGRFTISRDTEKNTVYLQMNSLKPEDTAVYYWNAVSRSLNYDYWGQGTQVTVSS | high polyreactivity
QVQLVESGGGLVQAGGSLRLTCAASGSIFRGYDMRWYRQAPGKERELVAASTWSGSTYYADSVKGRFTISRDNGKNTVYLQMNSLKPEDTAVYYCAAGSRYAYAYTMDYWGQGTQVTVSS | high polyreactivity
